# Measured values as given in US20150315275A1 (AstraZeneca / MedImmune, published 2015).
# T1: B7-H4 fusion protein Variant 5: IgC residues 154-259 of SEQ ID NO:1 (human, UniProt Q7Z7D3 154-259)
# T1 construct: Human IgG1 Fc fusion protein; also called IgC only; not shown: human IgG1 Fc
# T1 sequence: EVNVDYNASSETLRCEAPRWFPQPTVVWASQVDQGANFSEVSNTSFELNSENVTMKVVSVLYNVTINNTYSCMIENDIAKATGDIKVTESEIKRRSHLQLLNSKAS
# T2: B7-H4 fusion protein Variant 3: IgV residues 29-158 of SEQ ID NO:1 (human, UniProt Q7Z7D3 29-158)
# T2 construct: Human IgG1 Fc fusion protein; also called IgV only; not shown: human IgG1 Fc
# T2 chain: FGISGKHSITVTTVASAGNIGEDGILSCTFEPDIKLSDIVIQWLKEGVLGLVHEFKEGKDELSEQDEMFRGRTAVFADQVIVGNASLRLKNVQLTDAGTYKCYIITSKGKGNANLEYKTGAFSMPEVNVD
# T3: B7-H4 fusion protein Variant 2: IgV residues 29-154 of SEQ ID NO:1 (human, UniProt Q7Z7D3 29-154)
# T3 construct: Human IgG1 Fc fusion protein; also called IgV only; not shown: human IgG1 Fc
# T3 chain: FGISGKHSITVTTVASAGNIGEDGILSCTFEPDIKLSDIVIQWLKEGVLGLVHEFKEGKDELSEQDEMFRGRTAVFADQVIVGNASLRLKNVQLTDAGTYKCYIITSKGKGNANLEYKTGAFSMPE
# T4: B7-H4 fusion protein Variant 1: IgV residues 29-149 of SEQ ID NO:1 (human, UniProt Q7Z7D3 29-149)
# T4 construct: Human IgG1 Fc fusion protein; also called IgV only; not shown: human IgG1 Fc
# T4 chain: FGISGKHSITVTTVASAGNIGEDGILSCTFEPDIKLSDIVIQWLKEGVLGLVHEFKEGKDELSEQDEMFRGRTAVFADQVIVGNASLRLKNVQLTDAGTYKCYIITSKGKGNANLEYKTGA
# T5: human B7-H4 expressed on cells (human, UniProt Q7Z7D3 25-282)
# T5 construct: the cell line is named under assay or readout; also called full length human B7-H4 on HEK293 cells; 293T.hB7-H4
# T5 sequence: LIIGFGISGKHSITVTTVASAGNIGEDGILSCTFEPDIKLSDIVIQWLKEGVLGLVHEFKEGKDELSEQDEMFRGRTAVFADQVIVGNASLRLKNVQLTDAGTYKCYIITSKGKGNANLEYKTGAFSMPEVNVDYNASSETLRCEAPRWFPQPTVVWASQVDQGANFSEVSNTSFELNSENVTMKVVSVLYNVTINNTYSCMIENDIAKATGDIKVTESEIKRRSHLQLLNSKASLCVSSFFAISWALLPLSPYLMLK
# Columns and labels:
# [1] = molecular target: T1, B7-H4 fusion protein Variant 5: IgC …; assay: ELISA, B7-H4 Fc fusion protein immobilized at 1 µg/ml, mouse antibody titrated, anti-mouse Ig HRP
# Protocol: (§1) 100 μl 1 μg/ml human IgG1 Fc fusion proteins diluted in PBS consisting of different segments of B7-H4 Extracellular domains were immobilized on flat bottom 96 well plates (Costar 9017) overnight at 4° C. […] Plates were washed twice with PBS+0.1% PS-20 and blocked with 200 μl/well PBS 10% FBS at RT for 1 hr. A titration of mouse anti-human B7-H4 antibodies 2H9, 2D1, 2E11, 6H3, 8E11 or H74 diluted in PBS 10% FBS were added to the plates and incubated at RT for 1 hr. Plates were washed three times and 100 μl 1 μg/ml anti-mouse Ig HRP (Sigma) was added to each well and incubated at RT for 1 hr. Plates were washed six times and 100 μl TMB substrate (SurModics) was added to each well for 5-15 mins. 100 μl stop solution (0.1M Sulfuric acid) was added to each well. Plates were read at Absorbance 450 nm by PerkinElmer EnVision 2104 Multilabel Reader.
# B7-H4-Ig fusion protein [2] = molecular target: T6, B7-H4-Ig fusion protein (human); assay: ELISA, B7-H4 Ig coated on the plate, purified antibody, HRP goat anti-mouse
# T6 construct: also called human B7-H4 Ig
# T6 sequence (chain, as listed by the source limits assumed): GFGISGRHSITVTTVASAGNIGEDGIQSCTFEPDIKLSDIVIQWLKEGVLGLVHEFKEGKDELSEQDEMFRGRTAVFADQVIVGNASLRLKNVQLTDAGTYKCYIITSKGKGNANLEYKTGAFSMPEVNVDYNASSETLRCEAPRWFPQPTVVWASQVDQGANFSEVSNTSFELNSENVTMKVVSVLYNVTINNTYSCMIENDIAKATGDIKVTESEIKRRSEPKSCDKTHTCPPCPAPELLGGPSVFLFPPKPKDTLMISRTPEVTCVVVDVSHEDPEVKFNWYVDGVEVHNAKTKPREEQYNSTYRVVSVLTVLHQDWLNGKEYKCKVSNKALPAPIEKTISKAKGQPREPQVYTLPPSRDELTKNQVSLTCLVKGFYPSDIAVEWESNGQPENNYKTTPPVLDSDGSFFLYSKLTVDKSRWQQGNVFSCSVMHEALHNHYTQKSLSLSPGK
# Protocol: B7-H4 Ig was coated onto microtiter plates, washed, blocked, and washed again. Varying concentrations of anti-B7-H4 antibodies were allowed to bind. Purified proteins were used for clones H74, 6H3, and 8E11. Conditioned media from hybridomas 2D1, 2H9, and 2E11 were used. Following incubation, the plates were washed. Bound anti-B7-H4 was detected using HRP-conjugated goat anti-mouse (Jackson ImmunoResearch).
# [3] = molecular target: T2, B7-H4 fusion protein Variant 3: IgV …; assay: ELISA, B7-H4 Fc fusion protein immobilized at 1 µg/ml, mouse antibody titrated, anti-mouse Ig HRP
# Protocol: as §1
# [4] = molecular target: T3, B7-H4 fusion protein Variant 2: IgV …; assay: as above
# Protocol: as §1
# [5] = molecular target: T4, B7-H4 fusion protein Variant 1: IgV …; assay: as above
# Protocol: as §1
# [6] = molecular target: T5, human B7-H4 expressed on cells; assay: flow cytometry on HEK293 cells expressing full length human B7-H4, labelled secondary antibody, 20 min at 4 C
# Protocol: In order to determine the kinetics of binding of antibody 6H3 binding to B7-H4, with HEK293 cells that expressed full length human B7-H4 were incubated (for 20 minutes at 4° C. with 1×10⁵ in 200 μl wells) in the presence of varying concentrations of antibody (0, 0.01 ng, 0.03 ng, 0.1 ng, 0.3 ng, 1 ng, 10 ng, 30 ng, 100 ng, 300 ng, 1000 ng, 3000 ng, 10000 ng, or 30000 ng) in RPMI complete media (10% FBS). Binding was analyzed (FACS Canto II) using a FACS staining plate after incubation with a secondary antibody (anti-human Ig PE, anti-mouse Ig APC, anti-hamster Ig PE or anti-rat Ig PE).
# B7-H4-Ig fusion protein [7] = molecular target: T6, B7-H4-Ig fusion protein; assay: antibody captured on B7-H4-Ig fusion protein, detected with biotin-anti-mouse IgG1 and Europium-Streptavidin
# Source text: Serum was collected for initial evaluation of PK (peak and trough post 4th dose). Antibody was captured from serum with a B7-H4-Ig fusion protein, and detected with biotin-anti-mouse IgG1 (6H3.mIgG1) or IgG2a (6H3.mIgG2a) and detected with Europium-Streptavidin.
Binder,binding result [1],EC50 (read off the curve) (B7-H4-Ig fusion protein [2]),binding result [3],binding result [4],binding result [5],EC50 (read off the curve) [6],EC50 (read off the curve) (B7-H4-Ig fusion protein [7])
"anti-human B7-H4 antibody 2D1 (antibody, V domains shown, Mouse anti-human B7-H4 antibody; also called clone 2D1) VH: EVQLVESGGGLVKPGGSLKLSCAASGFTFNSHGMSWVRQTPEKRLDWVATISDGGTYTYYPVNVKGRFTISRDNAKNNLYLQMSHLKSEDTAMYYCARDGGGGAYWGQGTLVTVSA VL: DVVMTQTPLSLPVSLGDQASISCRSSHSLVHSNGNTYLHWYLQKPGQSPNLLIYIVSNRFSGVPDRFSGSGSGTDFTLKISRVEAEDLGVYFCSQSTHVPPTFGAGTKLELK",binds,–,–,–,–,–,–
"anti-human B7-H4 antibody 2H9 (antibody, V domains shown, Mouse anti-human B7-H4 antibody; also called clone 2H9) VH: EVQLVESGGNLVKPGGSLKLSCAASGFTFSNSAMSWVRQTPEKRLEWVATISDGGRYTYYPDNVKGRFTISRDNAKNNLYLQMSHLKSEDTALYYCARDRPHWYFDVWGTGATVTVSS VL: DIVLTQSPASLAVSLGQRATISCRASESIDNYGISFMHWYQQKPGQPPKLLIYRASNLESGIPARFSGSGSRTDFTLTINPVETDDVATYFCQQSDEGRTFGGGTKLEIK",–,–,binds,binds,binds,–,–

# Continued, values first:
binding result [1],EC50 (read off the curve) (B7-H4-Ig fusion protein [2]),binding result [3],binding result [4],binding result [5],EC50 (read off the curve) [6],EC50 (read off the curve) (B7-H4-Ig fusion protein [7]),Binder
–,~10 ng/mL,no binding (tested: 16 ng/ml),no binding (tested: 16 ng/ml),no binding (tested: 16 ng/ml),~6 nM,–,"murine anti-human B7-H4 antibody 6H3 (antibody, V domains shown, Mouse monoclonal antibody; also called clone 6H3; mouse anti-human B7-H4 6H3) VH: EVQLQQSGPVLVKPGTSVKMSCKASGYTFTDYYMNWVKQSHGKSLEWIGVINPYNGDTTYNQKFKGKATLTVDKSSSTAYMEVNSLTFEDSAVYYCARYPESTYWGQGTLVTVSA VL: DVVMTQTPLSLPVSLGDQASISCRSSQSLVHINGNTYLHWYLQKPGQSPKVLIYKVSNRFSGVPDRFSGSGSGTDFTLKISRVEAEDLGVYFCSQSTHVPLTFGAGTKLELK"
–,–,–,–,–,–,~10 ng/mL,"mouse 6H3.m1 (mouse IgG1) (antibody, V domains shown, 6H3 as mouse IgG1; also called 6H3.mIgG1) VH: EVQLQQSGPVLVKPGTSVKMSCKASGYTFTDYYMNWVKQSHGKSLEWIGVINPYNGDTTYNQKFKGKATLTVDKSSSTAYMEVNSLTFEDSAVYYCARYPESTYWGQGTLVTVSA VL: DVVMTQTPLSLPVSLGDQASISCRSSQSLVHINGNTYLHWYLQKPGQSPKVLIYKVSNRFSGVPDRFSGSGSGTDFTLKISRVEAEDLGVYFCSQSTHVPLTFGAGTKLELK"
